Test results reported in patent publication US11319369B2, “Motor control function improving agent” (Kao Corporation, priority 2016, dated 2022).

T1: GIP(3-42) (Homo sapiens, UniProt P09681)
T1 sequence (P09681 54-93): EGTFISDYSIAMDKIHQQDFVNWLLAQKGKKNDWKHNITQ

T2: GIP(1-42) (Homo sapiens, UniProt P09681)
T2 sequence (P09681 52-93): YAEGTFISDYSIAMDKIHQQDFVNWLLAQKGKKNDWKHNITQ


Legend:
[1] = tested on: leptin receptor deficient C57BLKS/J male mice (db/db mice); assay: Rotarod (motor control function) test after 28-day administration of GIP or GIP-binding anti-GIP antibody; assay type: in vivo, mouse; conditions: intraperitoneal daily for 28 days, GIP 5 nmol/kg, anti-GIP antibody 1 mg/kg, rotarod 6-28 rpm, compared to control group, FIG. 2
Experimental: Six-week-old leptin receptor deficient C57BLKS/J male mice (db/db mice, Oriental Yeast Co., Ltd.) were transferred (room temperature: 23° C., humidity: 55±10%, light period: 7:00 to 19:00) and were fed with food and water ad libitum. The food was CE-2 (CLEA Japan, Inc.), and the mice were acclimated for 2 weeks under the above-mentioned environment and were then used for testing.
Mouse-derived GIP (manufactured by AnaSpec, Inc.) was dissolved in physiological saline at a concentration of 500 nM to give a GIP solution. […]
Physiological saline (control group), the GIP solution (5 nmol/kg body weight). […] After administration for 28 days, the motor control function was measured by a rotarod test.
The motor control function (the accommodation ability reflecting balance ability and agility) was evaluated by measuring the capacity of staying on a rod rotating at various speeds using a rotarod (MK-600A, manufactured by Muromachi Kikai Co., Ltd.). Each mouse was placed on a stationary rod, and the number of times of falling was measured with a program of 6 rpm (1 min)→12 rpm (1 min)→16 rpm (1 min)→20 rpm (1 min)→24 rpm (1 min)→28 rpm (1 min). […]

[2] = target: T3, PEGylated N-terminus 13 amino acids of inactive GIP (GIP(3-15)) (Homo sapiens, UniProt P09681); assay: Hybridoma screening ELISA with immobilized antigen (2); assay type: binding; conditions: hybridoma culture supernatant
T3 construct: made in house; host or cells: synthetic peptide (no expression host)
Experimental: (§1) Polyethylene glycol was added to N-terminus 15 amino acids of active GIP (GIP(1-15)) (PEGylation (polyethylene glycolation)), and keyhole limpet hemocyanin (KLH) was then chemically bonded thereto to produce KLH-linked PEGylated GIP (1-15) as an immunogen.
(§2) The reaction between the hybridoma culture supernatant and the antigen (1) and (2) for measurement was evaluated by ELISA using immobilized antigen (1) and (2), and hybridomas that are positive for the antigen (1) and negative for the antigen (2) were selected as anti-active GIP monoclonal antibody-producing hybridomas.
(§3) Antibody-producing hybridoma was cloned by culturing the hybridomas obtained above through a limiting dilution method to obtain single colonies, and single colony-forming wells were subjected to ELISA again to establish 9B9H5-B9 line, which produces an antibody that is positive for the antigen (1) and negative for the antigen (2) (WO 2016/104439).

[3] = tested on: aged C57BL/6J male mice (115-week-old); assay: Rotarod (motor control function) test in aged mice given anti-GIP antibody; assay type: in vivo, mouse; conditions: C57BL/6J mice, 0.5 mg/kg intraperitoneal once a week, tested at 115-week-old, FIG. 4
Experimental: Four-week-old C57BL/6J male mice (CLEA Japan, Inc.) were transferred (room temperature: 23° C., humidity: 55±10%, light period: 7:00 to 19:00) and were fed with food (D12450K, Research Diets, Inc.) and water ad libitum for 111 weeks.
The anti-active GIP antibody produced in Production Example 1 was dissolved in physiological saline at a concentration of 0.05 mg/mL to give an anti-GIP antibody solution.
Physiological saline (control group) or the anti-GIP antibody solution (0.5 mg/kg body weight) (anti-GIP antibody administration group) was intraperitoneally administered to C57BL/6J mice (107-week-old) once a week (9:00 to 10:00 a.m.), 8 times (8 weeks) in total.
The motor control function (the accommodation ability reflecting balance ability and agility) was evaluated by measuring the capacity of staying on a rod rotating at various speeds using a rotarod (MK-600A, manufactured by Muromachi Kikai Co., Ltd.). The test was performed for 50-week-old mice (non-administration group) and 115-week-old mice (non-administration group, control group, and anti-GIP antibody administration group). Each mouse was placed on a stationary rod, and the number of times of falling was measured with a program of 6 rpm (1 min)→12 rpm (1 min)→16 rpm (1 min)→20 rpm (1 min)→24 rpm (1 min)→28 rpm (1 min).
The analysis results were shown as the average value (Ave.)±standard error (SE). […]

GIP(3-42) = target: T1, GIP(3-42); assay: Sandwich ELISA, cross-reactivity with inactive GIP; assay type: binding; conditions: biotinylated antibody 1 μg/mL as detection antibody; GIP 8.2 to 2000 pg/mL; FIG. 1
Experimental: (§4) The reactivity between the monoclonal antibody prepared in Production Example 1 and active GIP was confirmed by ELISA. The amino group of the anti-active GIP monoclonal antibody was biotinylated with NH2 group biotinylation kit (manufactured by Dojindo Laboratories). ELISA was performed using the produced biotinylated anti-active GIP monoclonal antibody at 1 μg/mL instead of a detection antibody, GIP detection antibody (biotinylated anti-total GIP monoclonal antibody), included in Human (total) GIP ELISA kit (manufactured by EMD Millipore Corporation). A […] dilution series of GIP(1-42) or GIP(3-42) was prepared in 6 steps (8.2 to 2000 pg/mL) with a 2000 pg/mL solution as the highest concentration. By using an anti-total GIP monoclonal antibody (included in Human GIP (total) ELISA kit manufactured by EMD Millipore Corporation) as a capture antibody, the biotinylated anti-active GIP monoclonal antibody as a detection antibody, and a peroxidase-streptavidin conjugate for detection, sandwich ELISA was conducted to prepare a calibration curve with GIP concentration on the X-axis and 450 nm-590 nm absorbance on the Y-axis (FIG. 1).

GIP(1-42) = target: T2, GIP(1-42); assay: Sandwich ELISA, reactivity with active GIP; assay type: binding; conditions: biotinylated antibody 1 μg/mL as detection antibody; GIP 8.2 to 2000 pg/mL; FIG. 1
Experimental: as §4

[4] = target: T4, PEGylated N-terminus 15 amino acids of active GIP (GIP(1-15)) (Homo sapiens, UniProt P09681); assay: Hybridoma screening ELISA with immobilized antigen (1); assay type: binding; conditions: hybridoma culture supernatant
T4 construct: PEGylated N-terminus 15 amino acids of active GIP (GIP(1-15)) was used as an antigen (1) for measurement; made in house; host or cells: synthetic peptide (no expression host)
Experimental: as §1, §2, §3

ELISA reaction with antigen (2) [2]	cross-reactivity with GIP(3-42) (450 nm-590 nm absorbance) (GIP(3-42))	ELISA reaction with antigen (1) [4]	Molecule	decrease in the motor control function (increase in the number of times of falling with an increase of the rotation speed) [1]	motor control function (number of times of falling) compared to non-administration and control 115-week-old groups ([3]; 8 times from 107-week-old, rotarod 6-28 rpm)	motor control function relative to the non-administration (50-week-old) group ([3]; 8 times)	reactivity with GIP(1-42) (450 nm-590 nm absorbance) (GIP(1-42))
			GIP: Mouse-derived GIP (manufactured by AnaSpec, Inc.), gastric inhibitory polypeptide, dissolved in physiological saline at 500 nM (YAEGTFISDYSIAMDKIRQQDFVNWLLAQRGKKSDWKHNITQ)	significant decrease			
negative	does not show cross-reactivity	positive	monoclonal antibody prepared in Production Example 1: Mouse monoclonal anti-active GIP antibody produced by hybridoma 9B9H5-B9 line; H-chain variable region SEQ ID NO: 2, L-chain variable region SEQ … (antibody, listed as Mus musculus, V domains shown) VH: QVQLQQPGAELVKPGASVKLSCKASGYTFTSFWMHWVIQRPGQGLEWIGEMNPSDGRTHFNEKFKTKATLTIDTSSNTAYMELNSLTSEDSAVYYCARRMEDWGQGTLVTVSA VL: DIKMTQSPSSMYASLGERVTITCKASQDINSYLGWFQQKPGKSPKTLIYGANRLVDGVPSRFSGSGSGQDYSLTISSLEYDDMGIYYCLQYDEFPLTFGAGTKLELKR		improvement in the motor control function was observed	equivalent to that of the non-administration (50-week-old) group	capable of specifically detecting GIP(1-42)
